From the supplement of paper PMC10567573

B1: FCHSD1 (parent)
chain: LEAAEVILEHAHRGEQTTSQVSWE

Variants of: B1
Assay: protein stability index of a GFP-peptide fusion (GPS, HEK-293T) (PSI 1-6); higher = more stable
Settings: c terminus: a fixed tail appended
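Also: lentivirally expressed fusions sorted by FACS into six bins by GFP to DsRed ratio, PSI derived from sequencing read proportions per bin multiplied by bin number.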

Protein stability index of substitutions, site by site:
A11: Q 4.11, V 4.54, N 4.18, T 3.04, W 3.23, M 4.46, S 4.12, Y 3.47, L 4.77, R 4.71, I 3.33, P 5.38
W23: F 4.64, L 5.12, I 4.2, T 4.9, Q 5.54, M 4.23, R 4.58, D 5.55, A 5.32, E 5.79, Y 4.71, S 5.24, H 5.61, C 3.4, N 3.89, P 5.29, K 4.41
Q20: R 4.45, V 4.02, N 4.86, T 3.86, Y 4.26, S 4.51, I 4.42, K 5.02, F 3.76, M 4.34, L 4.17, C 3.95, D 5.02, A 3.72, P 4.38, H 4.2
V21: S 5.51, Q 4.44, G 4.94, N 4.92, P 5.55, M 4.32, A 5.21, C 4.62, T 4.64, Y 3.9, K 4.68, I 3.5, E 5.07, R 4.18, F 3.3, L 4.58
E15: I 3.31, H 3.87, V 2.6, N 4.7, A 3.79, D 4.22, Q 3.5, F 2.31, W 2.2, L 2.81, K 3.46, R 3.87
H12: F 2.87, Y 4.09, T 4.11, N 4.55, E 4.92, I 4.25, P 4.43, K 4.07, M 3.79, D 4.04, S 4.77, A 4.23
S22: T 3.8, G 4.89, Y 4.63, M 4.54, E 4.68, K 4.93, D 4.77, L 3.79, P 5.17, Q 4.98, A 4.57, I 4.41, N 4.47, V 5.24, F 3.71, R 3.74, C 3.85
R13: V 4.93, D 4.67, Q 4.41, L 4.13, N 4.63, K 4.1, Y 3.44, C 3.5, M 4.27, G 5.25, S 4.24, A 4.58, I 4.11, H 4.6, P 4.9, T 4.58, W 3.27
T17: G 4.84, V 4.37, C 4.51, N 4.39, L 2.78, W 3.54, H 3.99, S 4.77, E 5.06, P 4.14, Y 3.32, M 3.85, Q 4.51, A 4.2
T18: R 3.93, H 4.09, W 2.7, G 4.38, I 3.65, C 4.45, V 3.88, L 4.11, P 4.33, S 4.41, D 4.74, E 4.2, Y 3.21, N 3.69, A 3.72, Q 3.21, F 2.98, M 3.59, K 4.54
E24: G 2.57, R 3.47, N 3.92, S 4.46, P 4.3, K 4.64, A 3.2, V 3.07, F 2.65, Q 3.95, M 2.72, L 2.95, I 2.01, Y 3.99, C 3.88, W 2.66, H 4
Q16: M 3.57, H 4.05, L 2.92, I 3.98, A 4.41, F 3.53, K 4.24, E 4.88, S 4.4, V 4.13, Y 3.69, T 4.33, P 4.05, D 4.9, N 3.97, R 4.14, C 2.73, G 4.42
G14: H 4.28, I 3.85, M 3.45, S 4.46, Q 4.63, T 4.21, D 4.68, L 3.76, A 4.55, V 3.47, N 4.53, C 4.2, P 4.29, E 4.53, Y 3.64, F 2.88, R 4.19
S19: F 2.97, P 4.7, C 3.3, I 3.02, Q 4.89, E 4.75, Y 2.64, K 4.45, N 4.7, D 5.11, L 2.8, A 2.6, V 2.37, R 4.42, T 4.21, M 3, H 4.14
